Data set [1] deals with O=P(O)(O)OP(=O)(O)OP(=O)(O)OC[C@H]1O[C@@H](n2cnc3c(O)ncnc32)[C@H](O)[C@@H]1O. Description: EnzChek pyrophosphate release assay, Michaelis-Menten fit. It counts as biochemical, Arabidopsis thaliana. The following applies: ITP to IMP.
Data set [2] concerns O=c1[nH]cnc2c1ncn2[C@H]1C[C@H](O)[C@@H](COP(=O)(O)OP(=O)(O)OP(=O)(O)O)O1. Described as above. It counts as biochemical, Arabidopsis thaliana. The following applies: dITP to dIMP.

Consider ITPA (Arabidopsis thaliana), for which, in data set [1], the Michaelis-Menten constant (Km) is 7.1 ± 1.2 µM and the kcat was determined as 1.9 ± 0.25 s⁻¹. Besides, in data set [2], the Km worked out at 1.7 ± 0.3 µM and the kcat turned out to be 1.5 ± 0.17 s⁻¹.

The Km is the concentration of substrate that gives half-maximal velocity. Broadly, the kcat is the maximal rate divided by the concentration of active sites.
